Measured values as given in IntAct's records for PubMed 23706744.

B1: Protein arginine N-methyltransferase 1 (Saccharomyces cerevisiae), P38074 (parent)
chain: MSKTAVKDSATEKTKLSESEQHYFNSYDHYGIHEEMLQDTVRTLSYRNAIIQNKDLFKDKIVLDVGCGTGILSMFAAKHGAKHVIGVDMSSIIEMAKELVELNGFSDKITLLRGKLEDVHLPFPKVDIIISEWMGYFLLYESMMDTVLYARDHYLVEGGLIFPDKCSIHLAGLEDSQYKDEKLNYWQDVYGFDYSPFVPLVLHEPIVDTVERNNVNTTSDKLIEFDLNTVKISDLAFKSNFKLTAKRQDMINGIVTWFDIVFPAPKGKRPVEFSTGPHAPYTHWKQTIFYFPDDLDAETGDTIEGELVCSPNEKNNRDLNIKISYKFESNGIDGNSRSRKNEGSYLMH
B2: Protein arginine N-methyltransferase 1 (Saccharomyces cerevisiae), P38074 (parent)
chain: B1 chain
partner: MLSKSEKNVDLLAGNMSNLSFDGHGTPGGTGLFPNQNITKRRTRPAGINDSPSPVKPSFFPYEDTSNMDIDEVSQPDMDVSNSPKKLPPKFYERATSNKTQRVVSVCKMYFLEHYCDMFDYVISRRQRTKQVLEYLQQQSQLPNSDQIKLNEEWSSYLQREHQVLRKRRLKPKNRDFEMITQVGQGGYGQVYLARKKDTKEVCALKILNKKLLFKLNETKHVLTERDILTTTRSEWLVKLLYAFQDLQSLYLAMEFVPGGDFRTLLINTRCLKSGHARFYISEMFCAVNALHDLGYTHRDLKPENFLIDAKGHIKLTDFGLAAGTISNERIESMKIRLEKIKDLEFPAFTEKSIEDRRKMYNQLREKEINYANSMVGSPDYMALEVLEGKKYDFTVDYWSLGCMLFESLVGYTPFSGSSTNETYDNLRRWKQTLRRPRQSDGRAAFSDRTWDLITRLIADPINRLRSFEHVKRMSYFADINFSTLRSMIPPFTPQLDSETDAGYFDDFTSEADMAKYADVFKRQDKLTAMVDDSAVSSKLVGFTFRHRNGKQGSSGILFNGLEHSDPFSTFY

Variants of: B1
Settings: with pp2a2_yeast PPH22, P23595
Sequence of pp2a2_yeast PPH22, P23595 (P23595 whole entry): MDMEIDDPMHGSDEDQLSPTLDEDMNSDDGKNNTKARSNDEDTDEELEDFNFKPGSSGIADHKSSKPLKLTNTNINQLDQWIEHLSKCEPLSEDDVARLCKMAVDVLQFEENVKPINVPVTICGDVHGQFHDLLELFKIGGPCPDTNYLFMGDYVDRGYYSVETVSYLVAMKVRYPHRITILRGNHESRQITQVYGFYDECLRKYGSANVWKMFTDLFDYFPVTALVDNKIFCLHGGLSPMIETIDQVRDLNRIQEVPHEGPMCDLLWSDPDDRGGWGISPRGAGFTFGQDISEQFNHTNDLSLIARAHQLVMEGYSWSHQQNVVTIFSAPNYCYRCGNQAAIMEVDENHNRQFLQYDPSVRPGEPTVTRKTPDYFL

Variant | effect of a mutation on the interaction
S9A | disrupting interaction strength

Variants of: B2
Settings: with dbf2_yeast DBF2, P22204

Variant | effect of a mutation on the interaction
S9A | disrupting interaction strength
